Results on 6 molecules are retold here after paper PMC5727386, “Structural and functional dissection of the DH and PH domains of oncogenic Bcr-Abl tyrosine kinase” (Nature Communications, 2017).

In assay [1] the target is T1, biotinylated Bcr-Abl PH domain (Avi-tag) (UniProt P11274 704-893, biotin on the Avi-tag).
T1 construct: Bcr part of Bcr-Abl p210, Pleckstrin-homology domain, residues 704-893; Cloned in pHBT1; the limits are those stated for the PH domain construct; also called biotinylated PH; source: E. coli BL21(DE3), co-expressed with BirA and 50 uM biotin, purified; not shown: Avi-tag, N-terminal, kept
T1 sequence (looked up): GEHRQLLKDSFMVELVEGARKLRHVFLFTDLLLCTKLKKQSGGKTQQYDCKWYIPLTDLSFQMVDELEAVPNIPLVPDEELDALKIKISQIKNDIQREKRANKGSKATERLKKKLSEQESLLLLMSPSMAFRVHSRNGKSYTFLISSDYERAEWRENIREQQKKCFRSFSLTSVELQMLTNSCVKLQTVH
In words: flow cytometry on cells; monobody displayed on yeast surface; biotinylated target 10 nM to 1 uM in TBS with 0.1% BSA, 30 min at RT; streptavidin-DyLight650; 1:1 binding model; apparent Kd. Conditions: one partner purified. In general terms: In flow cytometry, cells or beads pass a laser one at a time.

The target of assay [2] is T2, biotinylated Bcr-Abl DH-PH tandem domain (Avi-tag) (UniProt P11274 487-893, biotin on the Avi-tag).
T2 construct: Bcr part of Bcr-Abl p210, DH-PH tandem domain, residues 487-893; Cloned in pHBT1, which for the monobodies is said to give an N-terminal His- and Avi-tag followed by a TEV site; also called biotinylated DH-PH domain; source: E. coli BL21(DE3), co-expressed with BirA and 50 uM biotin, purified; not shown: Avi-tag, N-terminal, kept
T2 sequence (looked up): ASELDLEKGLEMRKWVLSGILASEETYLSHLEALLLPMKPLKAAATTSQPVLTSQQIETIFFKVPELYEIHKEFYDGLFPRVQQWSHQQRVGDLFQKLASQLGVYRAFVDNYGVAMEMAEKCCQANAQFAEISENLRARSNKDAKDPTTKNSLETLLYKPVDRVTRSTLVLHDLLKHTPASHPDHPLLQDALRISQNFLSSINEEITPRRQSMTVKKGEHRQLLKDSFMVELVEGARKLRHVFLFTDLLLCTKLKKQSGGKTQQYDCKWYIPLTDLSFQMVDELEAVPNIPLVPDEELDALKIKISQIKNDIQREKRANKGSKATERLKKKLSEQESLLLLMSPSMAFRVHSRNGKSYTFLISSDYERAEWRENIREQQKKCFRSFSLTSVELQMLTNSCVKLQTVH
The description is as above. Conditions: one partner purified.

Assay [3] concerns the target T3, Bcr-Abl DH domain (residues 487-702).
T3 construct: Bcr part of Bcr-Abl p210, Dbl-homology domain, residues 487-702; 15N-labelled for the NMR experiments; also called Bcr DH; source: E. coli Rosetta(DE3), purified (Ni-NTA, TEV cleavage, reverse Ni, SEC); not shown: His-tag, N-terminal, cleaved
T3 chain: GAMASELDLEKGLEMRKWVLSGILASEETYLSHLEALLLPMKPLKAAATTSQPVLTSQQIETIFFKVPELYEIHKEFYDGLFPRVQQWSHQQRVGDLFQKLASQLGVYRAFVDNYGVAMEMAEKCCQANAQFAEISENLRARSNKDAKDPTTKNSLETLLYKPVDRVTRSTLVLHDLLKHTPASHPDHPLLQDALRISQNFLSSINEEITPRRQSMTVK
Description: ITC; monobody (200 uM stock) titrated to the DH domain (20 uM) at 25 °C; 25 mM HEPES pH 7.5, 150 mM NaCl, 0.5 mM TCEP; 1:1 binding model. Conditions: both partners purified.

B1: monobody Mb(Bcr-PH_3), displayed on yeast surface (designed binder)
chain: VSSVPTKLEVVAATPTSLLISWDAPAVTVVFYVITYGETGGNSPVQEFTVPGSKSTATISGLKPGVDYTITVYAEYYGYSGWQSPISINYRT
notes: monobody on the fibronectin type III scaffold, side-and-loop library
As to B1, the Kd in assay [1] was determined as 63 ± 12 nM.

B2: monobody Mb(Bcr-DH_4), displayed on yeast surface (designed binder)
chain: VSSVPTKLEVVAATPTSLLISWDAPAVTVDLYVITYGETGGNSPVQEFEVPGSKSTATISGLKPGVDYTITVYAGSYAYEYYWGPSPISINYRT
notes: as for B1
B2: the Kd in assay [2] came to 20 ± 7 nM.

B3: monobody Mb(Bcr-DH_4), purified (designed binder)
chain: B2 chain
notes: monobody on the fibronectin type III scaffold, side-and-loop library; also called Mb(DH_4); S10; source: E. coli BL21(DE3), purified; not shown: His-tag, N-terminal, cleaved; Avi-tag, N-terminal, cleaved
What is called stoichiometry N is the number of molecules, sites or subunits per partner or assembly. On to B3, for which, in assay [3], the Kd is 14.5 ± 8.6 nM and the “stoichiometry N” value is 0.94.

B4: monobody Mb(Bcr-PH_2), displayed on yeast surface (designed binder)
chain: VSSVPTKLEVVAATPTSLLISWDAPAVTVVFYVITYGETGGNSPVQEFTVPGSKSTATISGLKPGVDYTITVYAEYYGYTSSPISINYRT
notes: as for B1
For the molecule B4, in assay [1], the Kd was 46 ± 10 nM.

B5: monobody Mb(Bcr-DH_3), displayed on yeast surface (designed binder)
chain: VSSVPTKLEVVAATPTSLLISWDAPAVTVDLYVITYGETGGNSPVQAFEVPGSKSTATISGLKPGVDYTITVYAGSETYRGYWSPISINYRT
notes: as for B1
For the molecule B5, in assay [2], the Kd came out at 18 ± 5 nM.

B6: monobody Mb(Bcr-DH_3), purified (designed binder)
chain: B5 chain
notes: monobody on the fibronectin type III scaffold, side-and-loop library; also called Mb(DH_3); source: E. coli BL21(DE3), purified; not shown: His-tag, N-terminal, cleaved; Avi-tag, N-terminal, cleaved
Regarding B6, in assay [3], the Kd stood at 2.1 nM and the “stoichiometry N” value was determined as 0.78.
